Consider 18 sequences from a protein production outcome set (Wang et al. 2014).

The data set can be described thus: label from the status in PepcDB records.
Regarding “MQDIVRKTIDNLNRNHMAGYYTQSIQQLHELLYRLMPEGQTVGCGDSVTLEQSGVYEYVRNHSYNFLDKYRTGLNREEKREIYLQNFRADTFLTGINAVTIDGKLFNIDGNGSRVAPIIYGPKQVIAVVGTNKIVKSVDDAIWRTRQIAAPLDARRLAKETPCVKLAKCIDCHHSQRICNDFVLITGQFEKGRIKVIFIEGDYGY”, the protein production result is “failed”. With “MQDLGIAFQTAVGDSGGNLDGRTPLPSNDWLMKRNCSLTPRQAGWFYFSIVCFSTAIAVFFAVWLGAWLVLPFAGLELLGLGIALLAYARHAADYERVSVTDGMLVVETASASRITREVFNPRWVRVELGESFRAPVVLRSDKRSVQVGLYLDPYRRRKFAQELAVALQRV”, the protein production entry is “failed”. “MQDQTEAVRFLSDPATHGGAPVERVETHGAFVFLAGSQAFKIKRAVRYDYMDLSTLALRHRMLARELELNRPAAPAIYRDLVAVTREPEGLALGGPGEPVEWVLRMWRFPAEDELSAVAERGALDDRLAARLGRSLAAYHRAAPVRSSDGAALVEAILDELGRVFAGMEDGLGAERIARFGTQARDMLARTKPLLRARSEAGRVRRGHGDLHLRNLVLIEGEPVPFDALEFDETLGTCDILYDLAFLLMDLDHRGLTRAAGIALAAWLFEMRGDEDGGLAALPLFLAVRAAIRGMVLVQTDAARGAPGHSDAEARGLLDEALRALSPPPPRLLAIGGVSGSGKTVLAAALAPRLGLPPGAIHLRSDLERKSRAGVPTDRRLGGAAYGEDARHAVYGQMLARAGAILAAGWPVILDATFLDPADRAAARALAAERGVPLEGLWLEAPPDLLVARVSTRRSDASDADEAVVRAQLARQPRAGDWRTLDTGRPPEEVAHSACRALGLD”: the protein production result is “failed”.

On to “MQDRCPHQDHRSIPTIMPDLEPDTVSALEAPEFAPAQFVRWFREVAPYVHAFRGKTFVVAFGGELVQAGALNVLVQDLSLLSALGIHLVLVHGSRPQVNEQLRLKGYTQQFGRGLAPTDPAALECAKEAAGEIRLDIEAAFSQGLPNTPMSHSHIRVLSGNFVTARPTGVVDGIDYKHTGQVRKIDVDALKFAIEQGSVVLLSPLGFSPTGDAFNLAMEDLATSVAVALRAEKLIFLSGEPGVLDGNGAVDTELARVDADALLARGELDEDTTYFLQHASLAVKRGVARAHLVPYALDGSVLLEIFTHDGVGTMVVEDTLDDLRAATLDDVGAILSLIEPLETDGTLVPRPRSAIERDVERFTVLEHDGVIYGCAALYPFPEDQMAEMACLIVHPEWQGSGEGEILLRHMESRARASGARRLFVLTTRTSHWFMKRGFVRGGVADLPRDKQNNYNRSRNSLVFIKKL”, for which the protein production result is on record as “failed”.

With “MQDSSSQHEPLWDRFGDLTVWKRGDQRAPHKPLLILYALGRLAQGDRWLRFSDIEEDLTDLLIEFGPPRQSHHPEYPFWHLRSDGVWVVPEADVLEMRQSASNPPKTELREKEARGGFSDDIHQAFRNDSELRRGIARLLLSSHFPTSLHEDIATAVSLDLEGAASERRDPEFRTQVLQAYQYRCAICGFNLQLGMSGTPIGVEAAHIKWKQARGPDEISNGIALCALHHKMLDKGALHVTEDLRLFVSEAVHGSQPHLSRLQDRHGNRIHTPQRETYYPNGEVVTWHVNEVFRGPPRV”, the protein production result was “failed”.

With “MQEKIHWITNLRGIACMMVVMIHSTSWYITHPHAITLLQWDIANLLNSASRVSVPLFFMISGYLFFGERSAQPRHFWRIGLCIAFYSALSLLYITLFTHINVELSLKNLLQKPVFYHLWFFFAITVIYLLSPLLQVKSTSSTMLLALMAILGILANPNMVSVKAAGIEWLPVNLYINGDTFYYVLYGVLGRAIGTLDTDKKWLTPLCAALFIAAVWVISRGTLHELRWRGDFGDTWYLYCGPAVFVCAVTLLTLAKNWLNARPLPGIACIARHSLGIYGFHALIVHALRASHLELSRWPLLDIVWIFSAALLGSLLLSGLVQRIDSRRLVS”, the protein production result was “failed”.

As to “MQELSPAELGEQVQDDDGPLVLDIRHEEDFQEWHIPGSRNVDVYDELTDDPEQAIEPLDDLPSDEQIVTVCAAGVVSQTATAVLRELGYDAVTLTDGMNGWSRVHRHAELPVDVDGTLVQVARPGKGCLSHVLVSDGEAAVFDPSHYLNEYDTVLDEYDAELVGVFDTHAHADHVSGAADLADRHDVPYYLHQKDALAVDATPLEDGQTVTVGRLDIEVIHTPGHSEGSVSFDVEGAALLTGDTLFHDSVGRVELGVEAGIEDADVEGNAATLYESLQRLLDRPDDALVLPAHDPGSPEPPVAATLAEVRERNDDLGRDREAFVEELASDIPDHPPNFERVKRTNVGQESVPEEELAELELGPNNCAAE”, the protein production entry was “failed”. Under “MQEQRQQLLRSLEALIFSSEEPVNLQTLSQITAHKFTPSELQEAVDELNRDYEATGRTFRIHAIAGGYRFLTEPEFADLVRQLLAPVIQRRLSRSMLEVLAVVAWHQPVTKGEIQQIRGASPDYSIDRLLARGLIEVRGRADSPGRPLQYGTTEVFLDLFHLPSLKDLPKLREIKEILQEHEEQQYLAADGDLPVAADEDEKPRMERIE” stands “not failed”; under “MQEQWGYVAISFIIGIAIAFSSSLLLIVFCLFLNVFFCLYRTSRKTFIFCIVACFSSVIYTSYVQTWNKPLGESYGVTRGVIQNTPLVNGDRLSFQFEDQNKNIVQLSYRIKSALEKKKMQQLYAGISCVFEGERKEPETARNFHGFNYRDYLYKQHIHFTFEATYISECYKTSLSLTQWILLLRQQAISKVTEMFPEQSGAFMNALLFGDRQQMTFEVEEQYQQFGLVHLLAISGSHIVLLMVIVYFILLRSGATREVATICLIVCIPLYMVLAGASPSVIRASITGVLMLIAFMCSIRLSSLDALSVTAICMLIYDPYLVFNIGFQFSFVGSFALLLSAPLLLGSSNGVIRNSIYISIISQLVSTPILLYHFGYFSPYSILLNLLYVPFLSIIVLPCSIIILLCMPIVPFLAKGFADVLSIGLSMSNDFLSYCESLPFTQLIFGETPLNLVAVYCASIVSILMVWERRAPKKIVCIVASVFLFISTCHYIYPYFRGSGSVTFIDVGQGDAILIRLPYDKGIYLIDTGGTLRVNKEEWQQKKHEFSVGNDVLIPFLQKEGIKTIDKLIVTHGDADHIGAAQELLSYIPVKEVVFGRKGKDAVLEKVVKKQALEKEMKITEVGEGASWSVNEAEFFVLAPKGKEKSENNASIVIWAKFGGLKWLFTGDLEEEGEKILVEAYPDLQVDVLKVAHHGSNTSSIEPFLNVMQPRVAIISVGKQNRYGHPHKEVIERFEKMGSAIWRTDKQGAISYVFKGENGTFKSKITYDKTHNR”, “failed”. Under “MQESGCRLEHPSATKFRNHVMEGDWDKAENDLNELKPLVHSPHAIVVRGALEISQTLLGIIVRMKFLLLQQKYLEYLEDGKVLEALQVLRCELTPLKYNTERIHVLSGYLMCSHAEDLRAKAEWEGKGTASRSKLLDKLQTYLPPSVMLPPRRLQTLLRQAVELQRDRCLYHNTKLDNNLDSVSLLIDHVCSRRQFPCYTQQILTEHCNEVWFCKFSNDGTKLATGSKDTTVIIWQVDPDTHLLKLLKTLEGHAYGVSYIAWSPDDNYLVACGPDDCSELWLWNVQTGELRTKMSQSHEDSLTSVAWNPDGKRFVTGGQRGQFYQCDLDGNLLDSWEGVRVQCLWCLSDGKTVLASDTHQRIRGYNFEDLTDRNIVQEDHPIMSFTISKNGRLALLNVATQGVHLWDLQDRVLVRKYQGVTQGFYTIHSCFGGHNEDFIASGSEDHKVYIWHKRSELPIAELTGHTRTVNCVSWNPQIPSMMASASDDGTVRIWGPAPFIDHQNIEEECSSMDS” stands “failed”.

On to “MQESVVRVDYDSLETCKNFKPSVGTELIVLEKDIAHARFKGNESMVYEENFVHAGFVLIACNYAALCALNKRHSVVVSNNINFYAPLELNQEALIKAQVIQDGVKKAEIKIEAFVLDIQVLEGMIEIVVFDKKPFKFNFKEE”, for which the protein production entry is given as “failed”.

On to “MQETDNLLKTLNVKSLLEALLVYTPKGYKDLNLLERFETGLSGVLEVGILEKRNYAKVLKIFAYSKRFYKNLELVFFNYSAFHHSQFKTGESLFIYGKLEQSSFNQAYIINTPKIITKFGKISLIFKKVKNHKKIQENLQKLISLENLKKEGVKENIAHLLLEIFFPTPHFVKDFETNKNFPSQHLNALKYIEMLFYMKNLERKKLQFGAKIACPNNNERLKAFIASLPFKLTRDQQNAIKEIQNDLTSSIACKRLIIGDVGCGKTMVILASMVLTYPNKTLLMAPTSILAKQLYNEALKFLPPYFEVELLLGGSYKKRSNHLFETITHVVIGTQALLFDKRDLNEFALVITDEQHRFGTKQRYQLEKMASSKGNKPHSLQFSATPIPRTLALAKSAFVKTTMIREIPYPKEIETLVLHKRDFKIVMEKISEEIAKNHQVIVVYPLVNESEKIPYLSLSEGASFWQKRFKKVYTTSGQDKNKEEVIEEFRESGSILLATTLIEVGISLPRLSVMVILAPERLGLATLHQLRGRVSRNGLKGYCFLCTIQEENERLEKFADELDGFKIAELDLEYRKSGDLLQGGEQSGNSFEYIDLAKDENIIAEVKRDFLKAASVSRGTFEN”, for which the protein production result is reported as “failed”. Next, “MQEVHDYGIKFWSNNEFKIEKGLVKVCHGKNPSLLEIVQSVRDKGYRGPLLVRFPHLVQKQIKSLFDAFSSAIKEYQYSGAFKAVFPLKVNQMPSFVFPLVQGAKGLNYGLEAGSKSELIIAMSYTNPKAPITVNGFKDKEMIELGFIAKSMQHEITLTIEGLNELKTIIAVAKQNEFLACPKIGIRIRLHSTGTGVWAKSGGINSKFGLSSTEVLEAMRLLEENDLLEHFHMIHFHIGSQISDISPLKKALREAGNLYAELRKMGAKNLNSVNIGGGLAVEYTQHKHHQDKNYTLEEFSADVVFLLREIVKNKQEIEPDIFIESGRYISANHAVLVAPVLELFSHEYNEKSLKIKENNNPPLIDEMLDLLANINEKNAIEYLHDSFDHTESLFTLFDLGYIDLIDRSNTEVLAHLIVKKAVQLLYVKDHNDILRIQEQVQERYLLNCSFFQSLPDYWGLRQNFPVMPLNKLDEKPTRSASLWDITCDSDGEIAFDSTKPLFLHDIDIDEEEYFLAFFLVGAYQEVLGMKHNLFTHPTEFSVVFDEKGDYEVEDICEAQTILDVLDDLDYDTKEIERLLKQKIEDNNQLDMEEKKEIMGRLYVMLSENGYLRTIS”: “failed”; “MQFFTSDTHFFHKDLLGDSDFAPRPFASVDEMNQTIIDNWNARVAETDTVYHLGDIALYFTKPAIKSDEAVFNVLSQLNGHLELIKGNHDSRALFKYLAAHNFSDHGQPKFAFHDVGALIKYDHRQYYLTHYPMMLGIVNQIINLHGHIHHYAVPVKENINVGVDTPEQRYLTTSVPFGTPFSPTEIEQMVTGKAQEFREKQLEHHHHHH”: “failed”; “MQFKNTPQRYGVVSAALHWLTALVVYGMFALGLWIVTLSYYDGWYHQAPEIHKSIGILLMMALIVRIIWRLYSPPPVALTSYSRLTRASAAAGHLLLYLLLFAIIISGYLISTADGKPISVFSWFEIPATLTDAGAQADIAGTLHLWFAWSLVIISLSHGVMALKHHFIDKDDTLKRMTGMSSSDYGAQK”: “failed”. Take “MQGKKFISPGAWFSMNYPSDWNEFEDGEGSFLFYNPDVWTGNFRISAFKGNASYGKDAIRQELKENDSASLVKIGTWDCAYSKEMFQEEGTYYTSHLWITGTGNIAFECSFTVPKGGSAKEAEEVIATLEARKEGEKYPAELIPVRLSEIYQINEGYEWVVSTVKQELKKDFQGVEEDLEKIQQVIDSGKISPKKKDEWLAIGITVCAILTNEVEGMEWKTLIDGNREVPVLEYQGRTIDPMKIAWSKVKAGQPCNIAEAYQSAIDHH”: the protein production result is recorded as “not failed”. Next, “MQHTEERELKKRLMNTARTVSEMTEVKEALARKKQTEAVRHAVEEIRMINEADYIVVMDMNHIRYTHPVSTSIGKKSEGADEEAAFAEHIYFSEAKGEIGTAVRAFYPVKDQDLNQIGVVLVGKTLPGIADILLHLKRDI”: “failed”; “MQIDHGSRQPYYAQIVTGIEQDIAHGVLQSGEQLPSVREMARQHLLNPNTVSKAYKRLETQQIIETVPGKGTYVKVVDSTLFRQELREQFTQIVRLAGQRGVSIAELHGWLDQMGEK”: “failed”.
